Assay results as given in patent US20250243277A1 (AVACTA LIFE SCIENCES, published 2025).
Where a chain is given by its changes, count along the chain named.

B1: Clone 93 (designed binder)
chain: MIPGGLSEAKPATPEIQEIVDKVKPQLEEKTGETYGKLEAVQYKTQVDQWGVDLVYTGTNYYIKVRAGDNKYMHLKVFKSLIVKRAVILWEDLVLTGYQVDKNKDDELTGF
notes: His-tagged
B2: Clone 97 (designed binder)
chain: MIPGGLSEAKPATPEIQEIVDKVKPQLEEKTGETYGKLEAVQYKTQVDELDDAVKYWGTNYYIKVRAGDNKYMHLKVFKSLWWKTISADFEDLVLTGYQVDKNKDDELTGF
notes: His-tagged
B3: Clone 7 (designed binder)
chain: MIPGGLSEAKPATPEIQEIVDKVKPQLEEKTGETYGKLEAVQYKTQVVRQYYEWSWVGTNYYIKVRAGDNKYMHLKVFKSLFESPTEDNDEDLVLTGYQVDKNKDDELTGF
notes: His-tagged
B4: Clone 75 (designed binder)
chain: MIPGGLSEAKPATPEIQEIVDKVKPQLEEKTGETYGKLEAVQYKTQVVINQHENFKQGTNYYIKVRAGDNKYMHLKVFKSLHLFHGLWYIEDLVLTGYQVDKNKDDELTGF
notes: His-tagged
B5: Clone 74 (designed binder)
chain: MIPGGLSEAKPATPEIQEIVDKVKPQLEEKTGETYGKLEAVQYKTQVVRRWELWSFQGTNYYIKVRAGDNKYMHLKVFKSLWQEHTDSVEEDLVLTGYQVDKNKDDELTGF
notes: His-tagged
B6: Clone 85 (designed binder)
chain: MIPGGLSEAKPATPEIQEIVDKVKPQLEEKTGETYGKLEAVQYKTQVVNDGKSLVLAGTNYYIKVRAGDNKYMHLKVFKSLRLWDDRVSGEDLVLTGYQVDKNKDDELTGF
notes: His-tagged
B7: Clone 78 (designed binder)
chain: MIPGGLSEAKPATPEIQEIVDKVKPQLEEKTGETYGKLEAVQYKTQVVDQGWWENWAGTNYYIKVRAGDNKYMHLKVFKSLIWENNLRIHEDLVLTGYQVDKNKDDELTGF
notes: His-tagged
B8: Clone 99 (designed binder)
chain: MIPGGLSEAKPATPEIQEIVDKVKPQLEEKTGETYGKLEAVQYKTQVDTWGERLHYPGTNYYIKVRAGDNKYMHLKVFKSLWHKPKDNIIEDLVLTGYQVDKNKDDELTGF
notes: His-tagged
B9: Clone 98 (designed binder)
chain: MIPGGLSEAKPATPEIQEIVDKVKPQLEEKTGETYGKLEAVQYKTQVDWAIWRDKKVGTNYYIKVRAGDNKYMHLKVFKSLPIFEIVREGEDLVLTGYQVDKNKDDELTGF
notes: His-tagged
B10: Clone 73 (designed binder)
chain: MIPGGLSEAKPATPEIQEIVDKVKPQLEEKTGETYGKLEAVQYKTQVVDWGWGIPWVGTNYYIKVRAGDNKYMHLKVFKSLWLYGVKRLPEDLVLTGYQVDKNKDDELTGF
notes: His-tagged
B11: Clone 71 (designed binder)
chain: MIPGGLSEAKPATPEIQEIVDKVKPQLEEKTGETYGKLEAVQYKTQVVASFPEISWYGTNYYIKVRAGDNKYMHLKVFKSLKNYPKTGVTEDLVLTGYQVDKNKDDELTGF
notes: His-tagged
B12: Clone 92 (designed binder)
chain: MIPGGLSEAKPATPEIQEIVDKVKPQLEEKTGETYGKLEAVQYKTQVDIDDDLWSGTNYYIKVRAGDNKYMHLKVFKSLILWPTKPEREDLVLTGYQVDKNKDDELTGF
notes: His-tagged
B13: Clone 91 (designed binder)
chain: MIPGGLSEAKPATPEIQEIVDKVKPQLEEKTGETYGKLEAVQYKTQVVNQEHFRRFIGTNYYIKVRAGDNKYMHLKVFKSLNPWLHPQDFEDLVLTGYQVDKNKDDELTGF
notes: His-tagged
B14: Clone 76 (designed binder)
chain: MIPGGLSEAKPATPEIQEIVDKVKPQLEEKTGETYGKLEAVQYKTQVVHDFTIRYPWGTNYYIKVRAGDNKYMHLKVFKSLEYHVTKRDQEDLVLTGYQVDKNKDDELTGF
notes: His-tagged
B15: Clone 83 (designed binder)
chain: MIPGGLSEAKPATPEIQEIVDKVKPQLEEKTGETYGKLEAVQYKTQVVIYHELWNFYGTNYYIKVRAGDNKYMHLKVFKSLDNNGDGNWQEDLVLTGYQVDKNKDDELTGF
notes: His-tagged
B16: Clone 94 (designed binder)
chain: MIPGGLSEAKPATPEIQEIVDKVKPQLEEKTGETYGKLEAVQYKTQVDKVYLVWAWTGTNYYIKVRAGDNKYMHLKVFKSLFQKGSNKPEEDLVLTGYQVDKNKDDELTGF
notes: His-tagged
B17: Clone 90 (designed binder)
chain: MIPGGLSEAKPATPEIQEIVDKVKPQLEEKTGETYGKLEAVQYKTQVVLGWWFGINQGTNYYIKVRAGDNKYMHLKVFKSLAHLQYEWGGEDLVLTGYQVDKNKDDELTGF
notes: His-tagged
B18: Clone 88 (designed binder)
chain: MIPGGLSEAKPATPEIQEIVDKVKPQLEEKTGETYGKLEAVQYKTQVVAVHAPQYAPGTNYYIKVRAGDNKYMHLKVFKSLWSEKVAVFPEDLVLTGYQVDKNKDDELTGF
notes: His-tagged
B19: Clone 70 (designed binder)
chain: MIPGGLSEAKPATPEIQEIVDKVKPQLEEKTGETYGKLEAVQYKTQVVIEEPSAFWWGTNYYIKVRAGDNKYMHLKVFKSLLRVRHSAYREDLVLTGYQVDKNKDDELTGF
notes: His-tagged
B20: Clone 8 (designed binder)
chain: MIPGGLSEAKPATPEIQEIVDKVKPQLEEKTGETYGKLEAVQYKTQVVPLPDPIDWVGTNYYIKVRAGDNKYMHLKVFKSLHIHLNQIYREDLVLTGYQVDKNKDDELTGF
notes: His-tagged
B21: Clone 72 (designed binder)
chain: MIPGGLSEAKPATPEIQEIVDKVKPQLEEKTGETYGKLEAVQYKTQVVIHEPEIWWYGTNYYIKVRAGDNKYMHLKVFKSLHKADRQKEREDLVLTGYQVDKNKDDELTGF
notes: His-tagged
B22: Clone 87 (designed binder)
chain: MIPGGLSEAKPATPEIQEIVDKVKPQLEEKTGETYGKLEAVQYKTQVVKRLHLPQYPGTNYYIKVRAGDNKYMHLKVFKSLGNIEPITDLEDLVLTGYQVDKNKDDELTGF
notes: His-tagged
B23: Clone 80 D82A (designed binder)
chain: MIPGGLSEAKPATPEIQEIVDKVKPQLEEKTGETYGKLEAVQYKTQVVRRKHFPQWPGTNYYIKVRAGDNKYMHLKVFKSLALQPREVFQEDLVLTGYQVDKNKDDELTGF
notes: alanine mutant of Clone 80 made in E. coli
B24: Clone 80 F53A (designed binder)
chain: B23 chain with F53A, A82D
notes: as for B23
B25: Clone 80 Q84A (designed binder)
chain: B23 chain with A82D, Q84A
notes: as for B23
B26: Clone 80 P54A (designed binder)
chain: B23 chain with P54A, A82D
notes: as for B23
B27: Clone 80 R50A (designed binder)
chain: B23 chain with R50A, A82D
notes: as for B23
B28: Clone 80 Q55A (designed binder)
chain: B23 chain with Q55A, A82D
notes: as for B23
B29: Clone 80 L83A (designed binder)
chain: B23 chain with A82D, L83A
notes: as for B23
B30: Clone 80 W56A (designed binder)
chain: B23 chain with W56A, A82D
notes: as for B23
B31: Clone 80 P85A (designed binder)
chain: B23 chain with A82D, P85A
notes: as for B23
B32: Clone 80 H52A (designed binder)
chain: B23 chain with H52A, A82D
notes: as for B23
B33: Clone 80 F89A (designed binder)
chain: B23 chain with A82D, F89A
notes: as for B23
B34: Clone 80 P57A (designed binder)
chain: B23 chain with P57A, A82D
notes: as for B23
B35: Clone 111 (designed binder)
chain: MIPGGLSEAKPATPEIQEIVDKVKPQLEEKTGETYGKLEAVQYKTQVDIQDRLGGFIGTNYYIKVRAGDNKYMHLKVFKSLHFYRGILYREDLVLTGYQVDKNKDDELTGF
notes: His-tagged

Target: T1, human PD-L1-Fc (R&D Systems) (human, UniProt Q9NZQ7 19-239)
T1 construct: Bought from R&D Systems; Biotinylated in-house for the phage selection; also called huPD-L1-Fc; human PD-L1-Fc antigen; not shown: Fc part of the bought fusion
Assay: soluble Affimer ELISA

T1 sequence (Q9NZQ7 19-239 limits assumed): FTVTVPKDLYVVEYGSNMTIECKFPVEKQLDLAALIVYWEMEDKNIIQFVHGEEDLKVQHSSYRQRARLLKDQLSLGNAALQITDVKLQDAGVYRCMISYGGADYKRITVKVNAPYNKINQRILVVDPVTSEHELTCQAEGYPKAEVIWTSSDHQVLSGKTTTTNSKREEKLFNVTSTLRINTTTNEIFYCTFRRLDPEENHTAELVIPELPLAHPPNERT

binding result | Binder
binds | B1
binds | B2
binds | B3
binds | B4
binds | B5
binds | B6
binds | B7
binds | B8
binds | B9
binds | B10
binds | B11
binds | B12
binds | B13
binds | B14
binds | B15
binds | B16
binds | B17
binds | B18
binds | B19
binds | B20
binds | B21
binds | B22

Target: T1, human PD-L1-Fc (R&D Systems)
Assay: SPR (Biacore 8K), binding to PD-L1-Fc

Kd [nM] | binding result | Binder
5.08 |  | B23
 | no binding | B24
0.61 |  | B25
0.93 |  | B26
 | no binding | B27
1.69 |  | B28
1.48 |  | B29
 | no binding | B30
2.53 |  | B31
38 |  | B32
2.61 |  | B33
8.91 |  | B34

Target: T1, human PD-L1-Fc (R&D Systems)
Assay: SPR (Biacore T200): human PD-L1-Fc amine-coupled on a CM5 chip, Affimer monomer titrated as analyte, 1:1 Langmuir fit
Procedure: BIACORE™ T200 binding kinetic analysis was performed on monomer AFFIMER® clones with running buffer HBS-EP+ (Cytiva) and a series S sensor CM5 chip immobilized with human PD-L1-Fc (R&D Systems) in 10 mM Sodium acetate pH4.0 μsing amine coupling reagents (Cytiva). A concentration titration of AFFIMER® monomer was run as analyte with an association time of 150 seconds, followed by a dissociation time of 300 seconds at a flow rate of 30 μl/min. For Clone 80, the association time was increased to 500 seconds and 1000 seconds dissociation time. The human PD-L1-Fc immobilized surface was regenerated with 3-3.5 mM NaOH solution (Cytiva) for 20-30 seconds at 20 μl/min flow rate. The kinetic data was blank subtracted and fit to a 1:1 Langmuir binding model (BIAcore evaluation software; Cytiva) to calculate an apparent KD value.

Kd [nM] | koff [s⁻¹] | kon [M⁻¹ s⁻¹] | Binder
44 | 0.0457 | 1.04e+06 | B35
